The values below come from paper PMC4746701, “Crystal structure of SEL1L: Insight into the roles of SLR motifs in ERAD pathway” (Scientific Reports, 2016).

Series [1] concerns the molecule itself. The experiment in a line: cross-linking; glutaraldehyde (0.005%) or dimethyl suberimidate (0.3 mM), products analysed by SDS-PAGE.
Series [2] concerns the molecule itself. The experiment in a line: SEC; Superdex 200; 25 mM Tris, 150 mM NaCl, 5 mM DTT, pH 7.5. For orientation: In gel filtration, larger molecules generally elute earlier.
For series [3], the target named is T1, MBP-SEL1L SLR-C (SLR motifs 10 and 11, residues 639–719) (Mus musculus, UniProt Q9Z2G6 639-719).
T1 construct: SEL1L, Mus musculus, residues 639-719 (SLR-C); source: purified; not shown: MBP, N-terminal, kept
T1 sequence (Q9Z2G6 639-719): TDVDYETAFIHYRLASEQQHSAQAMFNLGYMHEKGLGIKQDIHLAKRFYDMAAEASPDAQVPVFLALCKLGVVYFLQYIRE
The experiment in a line: pull-down; 400 μg GST-HRD1 luminal fragment on glutathione sepharose 4B beads, 100 μg MBP-SEL1L protein; 150 mM NaCl, 25 mM sodium phosphate pH 7.5, 5 mM DTT; 4 °C, 15 minutes; SDS-PAGE, Coomassie. The settings on record: both partners purified.

B1: SEL1L^cent (mouse SEL1L central domain, SLR motifs 5 to 9, residues 348–533) (domain or fragment, Mus musculus, UniProt Q9Z2G6 348-533, looked up)
chain: NSGMLEEDLIQYYQFLAEKGDVQAQVGLGQLHLHGGRGVEQNHQRAFDYFNLAANAGNSHAMAFLGKMYSEGSDIVPQSNETALHYFKKAADMGNPVGQSGLGMAYLYGRGVQVNYDLALKYFQKAAEQGWVDGQLQLGSMYYNGIGVKRDYKQALKYFNLASQGGHILAFYNLAQMHASGTGVMR
notes: Forms a homodimer (crystal, cross-linking, AUC, SEC); also called wild-type SEL1L^cent; source: purified
Take B1: the stoichiometry N (commonly the number of molecules, sites or subunits per partner or assembly) in series [1] came to 2.

B2: SEL1L^cent G512A (domain or fragment, Mus musculus, UniProt Q9Z2G6 348-533, looked up)
chain: NSGMLEEDLIQYYQFLAEKGDVQAQVGLGQLHLHGGRGVEQNHQRAFDYFNLAANAGNSHAMAFLGKMYSEGSDIVPQSNETALHYFKKAADMGNPVGQSGLGMAYLYGRGVQVNYDLALKYFQKAAEQGWVDGQLQLGSMYYNGIGVKRDYKQALKYFNLASQAGHILAFYNLAQMHASGTGVMR
notes: source: purified
For the molecule B2, the binding result in series [2] was “binds”.

B3: SEL1L^cent G513A (domain or fragment, Mus musculus, UniProt Q9Z2G6 348-533, looked up)
chain: NSGMLEEDLIQYYQFLAEKGDVQAQVGLGQLHLHGGRGVEQNHQRAFDYFNLAANAGNSHAMAFLGKMYSEGSDIVPQSNETALHYFKKAADMGNPVGQSGLGMAYLYGRGVQVNYDLALKYFQKAAEQGWVDGQLQLGSMYYNGIGVKRDYKQALKYFNLASQGAHILAFYNLAQMHASGTGVMR
notes: source: purified
Turning to B3, the binding result in series [2] is “binds”.

B4: SEL1L^cent Q460A (negative control point mutant) (domain or fragment, Mus musculus, UniProt Q9Z2G6 348-533, looked up)
chain: NSGMLEEDLIQYYQFLAEKGDVQAQVGLGQLHLHGGRGVEQNHQRAFDYFNLAANAGNSHAMAFLGKMYSEGSDIVPQSNETALHYFKKAADMGNPVGQSGLGMAYLYGRGVAVNYDLALKYFQKAAEQGWVDGQLQLGSMYYNGIGVKRDYKQALKYFNLASQGGHILAFYNLAQMHASGTGVMR
notes: source: purified
As for B4, in series [2], the binding result is listed as “binds”.

B5: GST-HRD1 N-terminal luminal loop (residues 21–42) (domain or fragment, mouse, UniProt Q9DBY1 21-42, looked up)
chain: HAYYLKHQFYPTVVYLTKSSPS
notes: HRD1 E3 ubiquitin ligase, mouse, N-terminal luminal loop, residues 21-42; also called N-terminal luminal loop of HRD1; HRD1 luminal fragment GST-fusion protein; source: GST-fusion protein immobilised on glutathione sepharose 4B beads
In the case of B5, the binding result in series [3] is “binds”.

B6: SEL1L^long (mouse SEL1L residues 337–554) (domain or fragment, Mus musculus, UniProt Q9Z2G6 337-554, looked up)
chain: RLPDEVENPGMNSGMLEEDLIQYYQFLAEKGDVQAQVGLGQLHLHGGRGVEQNHQRAFDYFNLAANAGNSHAMAFLGKMYSEGSDIVPQSNETALHYFKKAADMGNPVGQSGLGMAYLYGRGVQVNYDLALKYFQKAAEQGWVDGQLQLGSMYYNGIGVKRDYKQALKYFNLASQGGHILAFYNLAQMHASGTGVMRSCHTAVELFKNVCERGRWSER
notes: SEL1L, Mus musculus (790 amino acids), residues 337-554; also called the central region of SEL1L, residues 337–554; source: purified
Consider B6, for which, in series [1], the “stoichiometry N” value amounted to 2.
